Here are results for 17 molecules from patent US20220195015A1 (published 2022).

What is called EC50 is the concentration needed to bring the measured effect to its halfway point. Low values mean higher potency in that assay, high ones lower potency in that assay.

Changes are numbered by the printed parent chain.

The chains are these.
B1: C081 (antibody, V domains shown)
VH: EVQLVESGGGLVKPGGSLRLSCAASGFTFSSAWMSWVRQAPGKGLEWVGRIKTKTDGGTKDYAAPVKGRFTISRDDSKNTLYLQMNSLKTEDTAVYYCTTTNDYGDYSPAYWGQGTLVTVSS
VL: not shown
B2: C518 (antibody, V domains shown)
VH: EVQLVESGGGLIQPGGSLRLSCAASGITVSSNYMSWVRQAPGKGLEWVSVMYAGGSSFYADSVKGRFTISRDNSKNTLYLQMNSLRVEDTAVYYCARDLIALGVDVWGQGTTVTVSS
VL: DIQLTQSPSFLSASVGDRVTITCRASQGISSYLAWYQQKPGKAPKLLIYAASTLQSGVPSRFSGSGSGTEFTLTISSLQPEDFATYYCQLLNSYPMCSFGQGTKLEIK
B3: C089 (antibody, V domains shown)
VH: QVQLVESGGGVVQPGRSLRLSCAASGFTFRTYAMHWVRQAPGKGLEWVAVILSDGNNKYYADSVKGRFTISRDNSKNTLYLQMNSLRAEDTAIFYCAREQEANYYDISGYYHWGESLGYWGQGTLVTVSS
VL: DIQLTQSPSFLSASVGDRVTITCRASQGISSYLAWYQQKPGKAPKLLIYGASTLQSGVPSRFSGSGSGTEFTLTISSLQPEDFASYYCQKVNSHPPGLTFGGGTKVEIK
B4: C090 (antibody, V domains shown)
VH: B3 VH
VL: B3 VL with L46F, H94Y
B5: C083 (antibody, V domains shown)
VH: EVQLVESGGGLVKPGGSLRLSCAASGFTFSSYSMNWVRQAPGKGLEWVSSISSSTSYIYYADSVKGRFTISRDNAKNSLYLQMNSLRAEDTAVYYCARERYGDNWGQGTLVTVSS
VL: QLVLTQSPSASASLGASVKLTCTLSSGHSSYAIAWHQQQPEKGPRYLMSLNSDGSHSKGDGIPDRFSGSSSGAERYLTISSLQSEDEADYYCQTWGPWVFGGGTKLTVL
B6: C519 (antibody, V domains shown)
VH: QVQLQESGPGLVKPSETLSLTCAVSGGSISSYYWSWIRQPPGKGLEWIGYIDTSGSTNYNPSLKSRVTMSVDTSKNQFSLNVNSVTAADTAVYFCGVCAGDCYAASVFDYRGQGTLVTVSS
VL: DIQMTQSPSSLSASVGDRVTITCQASQDIIFYLNWYQQKPGKAPKLLIYDASNLKTGVPSRFSGSGSGTDFAFTISSLQPEDIATYYCQQYDNLPLTFGGGTKVEIK
B7: C088 (antibody, V domains shown)
VH: QVQLVQSGAEAKKPGASVKVSCKTSGYTFTNYFMHWVRQAPGQGPEWMGIIDSSDGGASYAQKFQGRVTMTRDTSTSTVYMELRSLKFEDTAVYYCARASTSTTSWSDALSLGSWGQGTLVTVSS
VL: QSVLTQPPSVSGAPGQRVTISCTGSSSNIGGGSVVHWYQQLPGTAPKLLIYANSNRPSGVPDRFSGSKSGTSASLAIAGLQAEDEADYYCQSWDNGLSASGVVFGGGTKLTVL
B8: C085 (antibody, V domains shown)
VH: QVQLQESGPGLVKPSETLSLTCTVSGDSMSSYFWTWIRQPPGKGLECIGYFYPSGSTNYNPSLKSRVTISIDTSKNQFSLKLSSVTAADTAVYYCARLKQQLVGFGWFDPWGQGTLVTVSS
VL: QSVLTQPPSVSGAPGQRVTISCTGSSSNIGADYDVHWYQQFPGTAPKVLIYANTNRPSGVPERFSGSKSGTSASLAITGLQAEDEADYYCQSYDHSLNWVFGGGTKLTVL
B9: C086 (antibody, V domains shown)
VH: B8 VH with M29I, S31T, T35A, K43R, Y50S, Y52F, N58Y, I71V, S83N, T115S
VL: B8 VL with S26I, D34E, Q39V, G66A, S96R, N98H
B10: C068 (antibody, V domains shown)
VH: QVQLVESGGGVVQPGRSLRLSCVASGFSFSTYGMHWVRQAPGKGLEWVALIWSDGSNKYYGDAAEGRFTISRDNSNNTLYLQMNNLRAEDTALYYCARDHSSSSFVYYYYMDVWGKGTTVTVSS
VL: QSALTQPRSVSGSPGQSVTISCTGTSSDIGGYNYVSWYQQHPDKAPKFIIFDVSKRPSGVPDRFSGSKSGNTASLTISGLQAEDEADYYCCSYAGPYPYVFGTGTKVTVL
B11: C069 (antibody, V domains shown)
VH: QVQLVQSGAEVKKPGSSVNVSCKASGGTFSTYAIHWVRQAPGQGLEWMGGIIPLFHTANYAQKFQGRVTITADESTSTAYMELSSLRSEDTAMYYCAINTQWDLVPRWGRGTLVTVSS
VL: EIVLTQSPGTLSLAPGERATLSCRASQSVNSNYLAWYQQKPGQAPRLLIYGASSRATGIPDRFSGSGSGTDFTLTISRLEPEDFAVYYCQQYGFSLYSFGQGTKLEIK
B12: C504 (antibody, V domains shown)
VH: QVQLQESGPGLVKPSETLSLTCTVSGGSISSSYWNWIRQSPGKGLEWIGYIYYDGYTTFNPSLKSRVTISVDTSKNQFSLKLSSVTAADTAFYYCAAGLKGRSSSWYEYWGQGTLVTVSS
VL: DIQMTQSPSSLSASVGDRVTITCRASQSISSYLNWYQQKPGKAPKLLIYATSSLQSGVPSRFSGSGSGTDFTLTITSLQPEDFATYYCQQTYSSPHTFGQGTKLEIK
B13: C505 (antibody, V domains shown)
VH: EVQLLESGGGLVQPGGSLRLSCADSGFSFSTYGMSWVRQAPGKGLEWVSTISGSGDNTYHADSVKGRFTISRDNSKNTLYLQMNSLRAEDTAVYYCAKNIAEMSTFDDYFYYYGMDVWGQGTTVTVSS
VL: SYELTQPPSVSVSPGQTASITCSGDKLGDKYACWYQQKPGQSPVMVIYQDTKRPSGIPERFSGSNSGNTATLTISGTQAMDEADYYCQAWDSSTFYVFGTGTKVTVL
B14: C502 (antibody, V domains shown)
VH: QVQLVQSGAEVKKPGSSVKVSCKASGDTFSSHAINWVRQAPGQGLEWMGRSIPMLGVTTSAQKFKGRVTITADHSTSTVFMDLSSLRSDDTAIYYCARGVVGATPGSFDLWGQGTMVTVSS
VL: EIVMTQSPATLSVSPGKRATLSCRASQSVRSNLAWYQQRPGQAPRLLIYDAATRATGIPTRFSGSGSGTEFTLTISSLQSEDFAVYYCQQYDNGLTFGGGTKVEIK
B15: C503 (antibody, V domains shown)
VH: QVQLQESGPGLVQPSGTLSLSCTVTGGSISSNNWWSWVRQSPVKGLEWIGEIYHNGNINYNPSLKSRVTMSIDKSKNHFSLKLSSVTAADTAVYYCARGDVLDWFDPWGQGTLVTVS
VL: QSALTQPASVSGSPGQSITFSCTGTSSDVGAYNYISWYQQHPGKAPKLMIYDVNNRPSGVSRRFSGSKSGNTASLTISGLQSEDEADYFCSSYAGNSTVRFGGGTKLTVL
B16: C506 (antibody, V domains shown)
VH: EVQLVESGGGLVQPGGSLRLSCAASGFTFSSYDMHWVRQGTGKGLEWVSVIGTAGDAYYPGSVKGRFTISRENAKNSLYLQMNSLRAGDTAVYYCARMVYDSSGFKGYFDLWGRGTLVTVSS
VL: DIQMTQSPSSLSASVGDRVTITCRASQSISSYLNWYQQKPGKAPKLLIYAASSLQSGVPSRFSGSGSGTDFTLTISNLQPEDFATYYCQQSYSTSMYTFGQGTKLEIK
B17: C507 (antibody, V domains shown)
VH: EVQLVESGGGVVQPGRSLRLSCAASGFTFSSYAIHWVRQAPGKGLEWVAVISFDGSNKYYRDSVKGRFTISRDNGKNTLYLQMNSLRAEDTAVYYCAKAALGYCTNGVCYCDNWGQGTLVTVSS
VL: NFMLTQPHSVSESPGKTVTISCTGSSGSIASNYVQWYQQRPGSAPTTVIYEDNQRPSGVPDRFSGSIDSSSNSASLSISGLKTEDEADYYCQSYDINSLWVFGGGTRLTVL

For the first test, the target named is SARS-CoV-2 spike protein receptor binding domain (RBD) (SARS-CoV-2, UniProt P0DTC2 319-539). Nature of the test: ELISA on coated RBD protein. Background: ELISA stands for enzyme-linked immunosorbent assay.
Consider B1, for which the EC50 is 12.5 ng/mL.
Same read-out and setting: next, B2: 1.13 ng/mL.
Molecule B3 showed an EC50 of 4.69 ng/mL. Compared with the last molecule, the EC50 is about 4.2-fold higher.
Regarding B4, a half-maximal effect (EC50) was put at 6.22 ng/mL.
Regarding B5, the EC50 is 25.1 ng/mL.
On the same count and under the same terms, next, B6: 1.07 ng/mL.
The same measure, in the same setting: under B7 stands 2.44 ng/mL; under B8, 2.38 ng/mL.
Same read-out and setting: under B9 stands 3.01 ng/mL.
Turning to B10, the response was half-maximal at 5.46 ng/mL (EC50).
As to B11, the concentration giving a half-maximal response (EC50) worked out at 381 ng/mL.

A further test has as its target SARS-CoV-2 spike protein receptor binding domain (RBD), wild type (SARS-CoV-2, UniProt P0DTC2 319-539). Description: ELISA, RBD protein coated on plate, antibody titrated.
For B12, a half-maximal effect (EC50) was put at 9.08 ng/mL.
Same read-out and setting: next, B13: 16 ng/mL; B14: 6.48 ng/mL; B15: 6.55 ng/mL.
Take B16: the EC50 amounted to 5.94 ng/mL.
For B17, the EC50 turned out to be 5.6 ng/mL.
